Substitutions are numbered along the chain they refer to. Names and notes keep the numbering of the source.
T1: wild-type sβc, soluble extracellular domain of human βc (human, UniProt P32927 17-443)
T1 construct: extracellular domain; Expressed in Sf21 cells
T1 sequence (looked up): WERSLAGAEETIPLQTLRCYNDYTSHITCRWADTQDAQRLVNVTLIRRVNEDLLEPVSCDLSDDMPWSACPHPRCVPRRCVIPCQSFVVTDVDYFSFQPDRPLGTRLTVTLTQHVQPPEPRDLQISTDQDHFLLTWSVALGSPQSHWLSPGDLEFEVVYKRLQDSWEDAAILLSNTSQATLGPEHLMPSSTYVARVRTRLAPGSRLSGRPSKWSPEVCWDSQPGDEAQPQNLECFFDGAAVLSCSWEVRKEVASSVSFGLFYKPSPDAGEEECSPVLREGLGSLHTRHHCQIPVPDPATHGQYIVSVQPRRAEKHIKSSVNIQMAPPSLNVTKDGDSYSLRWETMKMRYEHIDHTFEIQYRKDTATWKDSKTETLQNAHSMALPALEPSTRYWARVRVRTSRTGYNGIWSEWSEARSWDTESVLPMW

B1: IL-3, P08700 20-152 (ligand, UniProt P08700 20-152, looked up)
chain: APMTQTTPLKTSWVNCSNMIDEIITHLKQPPLPLLDFNNLNGEDQDILMENNLRRPNLEAFNRAVKSLQNASAIESILKNLLPCLPLATAAPTRHPIHIKDGDWNEFRRKLTFYLKTLENAQAQQTTLSLAIF
modifications: here or on the partner: radio-iodinated (125I) in the COS cell binding assays
B2: sGM-CSFRα, soluble extracellular domain of the GM-CSF receptor alpha chain, expressed in Sf21 insect cells (receptor, human, UniProt P15509 23-320, looked up)
chain: EKSDLRTVAPASSLNVRFDSRTMNLSWDCQENTTFSKCFLTDKKNRVVEPRLSNNECSCTFREICLHEGVTFEVHVNTSQRGFQQKLLYPNSGREGTAAQNFSCFIYNADLMNCTWARGPTAPRDVQYFLYIRNSKRRREIRCPYYIQDSGTHVGCHLDNLSGLTSRNYFLVNGTSREIGIQFFDSLLDTKKIERFNPPSNVTVRCNTTHCLVRWKQPRTYQKLSYLDFQYQLDVHRKNTQPGTENLLINVSGDLENRYNFPSSEPRAKHSVKIRAADVRILNWSSWSEAIEFGSDDG
modifications: N-linked carbohydrate at Asn229 (modeled as NAG-NAG)
notes: extracellular domain; Cloned into the pIBV5-His vector; Residues 218-316 (domain 2) were traced in the crystal; also called GMRα
B3: sβc N346Q, soluble extracellular domain of human βc with the third N-glycosylation site removed (receptor, UniProt P32927 17-443, looked up)
chain: T1 sequence (looked up) with N330Q
modifications: N-linked carbohydrate at Asn58 (NAG-NAG-MAN) and Asn191 (NAG)
notes: extracellular domain; Intertwined homodimer; Cloned into pIBV5-His; also called sβc ΔN3; GM-CSF βc chain

Tests used:
[1] = biological target: IL-3 receptor on cells: IL3Rα co-expressed with the βc4 Gpoly-A mutant (M7-βc) (human), P26951; experiment: cell-based or functional assay
IL-3 receptor on cells: IL3Rα co-expressed with the βc4 Gpoly-A mutant (M7-βc) (human), P26951, sequence (P26951 19-378, change not shown): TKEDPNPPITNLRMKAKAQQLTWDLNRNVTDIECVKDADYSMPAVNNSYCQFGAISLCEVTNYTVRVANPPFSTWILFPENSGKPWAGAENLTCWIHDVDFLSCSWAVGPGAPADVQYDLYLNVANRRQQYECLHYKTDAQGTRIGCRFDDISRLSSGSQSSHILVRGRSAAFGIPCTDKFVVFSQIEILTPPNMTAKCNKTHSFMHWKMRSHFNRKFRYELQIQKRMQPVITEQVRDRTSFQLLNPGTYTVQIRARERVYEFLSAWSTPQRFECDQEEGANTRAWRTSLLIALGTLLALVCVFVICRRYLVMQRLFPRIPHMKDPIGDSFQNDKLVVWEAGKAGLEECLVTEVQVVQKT

[2] = biological target: B3; experiment: X-ray crystal structure, 3.3 Å
Procedure: (§1) The structure was determined by molecular replacement using the method of Storoni et al, Acta Crystallogr. D 60:432, 2004.
(§2) A homology model of domain 2 of the alpha chain was built into this density. […] D Biol. Crystallogr. 50:760, 1994 and refinement using the method of Murshudov et al, Acta Crystallogr. D 53:240, 1997. […] During the final refinement step each subunit was treated as a rigid body for the purposes of TLS (translation, libration and screw rotation tensors) refinement to account for overall differences in displacements between the molecules and anisotropy in the data (Winn et al, Acta Crystallogr. D 57:122, 2001; Painter and Merritt, Acta Crystallogr. D 62:439, 2006).

[3] = biological target: T1, wild-type sβc, soluble extracellular …; experiment: ternary complex formation of soluble proteins (all three present); wild type as the reference
[4] = biological target: the molecule itself; experiment: X-ray crystal structure, 3.3 Å
Procedure: as §1, §2

Binder: B1
- ED50 of proliferation of CTL-EN cells in response to IL-3 [1]: 0.0103 µg/mL
- fold increase of ED50 against wild type βc [1]: 413 fold

Binder: B2
- binding result [2]: binds
- binding result [3]: binds

Binder: B3
- binding result [4]: binds

— patent publication US20110150884A1 (ST VINCENT S INSTITUTE OF MEDICAL RESEARCH, published 2011)
